Bridge positions count the residues as written; N and C are the ends. Ends that are not written are not given here.
System: patients with chronic idiopathic constipation (CIC)
Assay: Second phase 3 CIC trial: treatment emergent adverse events, safety

Substance: Asn^1-Asp^2-Glu^3-Cys^4-Glu^5-Leu^6-Cys^7-Val^8-Asn^9-Val^10-Ala^11-Cys^12-Thr^13-Gly^14-Cys^15-Leu^16 (NDECELCVNVACTGCL; disulfide 4-12, 7-15) [Plecanatide]
- Infections and infestations, Severe: patients N (3 mg): 0
- Infections and infestations: events E (3 mg): 38
- Infections and infestations: patients % (3 mg): (7.3) %
- Infections and infestations: patients N (3 mg): 34
- Influenza, Mild: events E (3 mg): 2
- Influenza, Mild: patients % (3 mg): (0.4) %
- Influenza, Mild: patients N (3 mg): 2
- Influenza, Moderate: events E (3 mg): 0
- Influenza, Moderate: patients N (3 mg): 0
- Influenza, Severe: events E (3 mg): 0
- Influenza, Severe: patients N (3 mg): 0
- Influenza: events E (3 mg): 2
- Influenza: patients % (3 mg): (0.4) %
- Influenza: patients N (3 mg): 2
- Injury, poisoning and procedural complications, Mild: events E (3 mg): 6
- Injury, poisoning and procedural complications, Mild: patients % (3 mg): (0.9) %
- Injury, poisoning and procedural complications, Mild: patients N (3 mg): 4
- Ligament sprain, Mild: events E (3 mg): 1
- Ligament sprain, Mild: patients % (3 mg): (0.2) %
- Ligament sprain, Mild: patients N (3 mg): 1
- Ligament sprain, Moderate: events E (3 mg): 1
- Ligament sprain, Moderate: patients % (3 mg): (0.2) %
- Ligament sprain, Moderate: patients N (3 mg): 1
- Ligament sprain, Severe: events E (3 mg): 0
- Ligament sprain, Severe: patients N (3 mg): 0
- Ligament sprain: events E (3 mg): 2
- Ligament sprain: patients % (3 mg): (0.4) %
- Ligament sprain: patients N (3 mg): 2
- Skeletal injury, Mild: events E (3 mg): 0
- Skeletal injury, Mild: patients N (3 mg): 0
- Skeletal injury, Moderate: events E (3 mg): 0
- Skeletal injury, Moderate: patients N (3 mg): 0
- Skeletal injury, Severe: events E (3 mg): 0
- Skeletal injury, Severe: patients N (3 mg): 0
- Skeletal injury: events E (3 mg): 0
- Skeletal injury: patients N (3 mg): 0
- Ileus: events (E) (3 mg (N = 467)): 0
- Infections and infestations (SOC): events E (3 mg (N = 467)): 38
- Infections and infestations (SOC): patients % (3 mg (N = 467)): (7.3) %
- Infections and infestations (SOC): patients N (3 mg (N = 467)): 34
- Influenza like illness, Mild: events (E) (3 mg (N = 467)): 0
- Influenza like illness, Moderate: events (E) (3 mg (N = 467)): 0
- Influenza like illness, Severe: events (E) (3 mg (N = 467)): 0
- Influenza like illness: events (E) (3 mg (N = 467)): 0
- Influenza like illness: events E (3 mg (N = 467)): 0
- Influenza like illness: patients N (3 mg (N = 467)): 0
- Influenza: events E (3 mg (N = 467)): 2
- Influenza: patients % (3 mg (N = 467)): (0.4) %
- Influenza: patients N (3 mg (N = 467)): 2
- Injury, poisoning and procedural complications (SOC): events E (3 mg (N = 467)): 10
- Nausea, Mild: events (E) (3 mg (N = 467)): 4
- Nausea, Mild: patients (%) (3 mg (N = 467)): (0.9) %
- Nausea, Moderate: events (E) (3 mg (N = 467)): 0
- SAE Musculoskeletal and connective tissue disorders, E events (3 mg (N = 467)): 0
- SAE Musculoskeletal and connective tissue disorders, N patients (3 mg (N = 467)): 0
- SAE Musculoskeletal and connective tissue disorders, No Reasonable Possibility, E events (3 mg (N = 467)): 0
- SAE Musculoskeletal and connective tissue disorders, No Reasonable Possibility, N patients (3 mg (N = 467)): 0
- SAE Musculoskeletal and connective tissue disorders, Reasonable Possibility, E events (3 mg (N = 467)): 0
- SAE Musculoskeletal and connective tissue disorders, Reasonable Possibility, N patients (3 mg (N = 467)): 0
- Infections and infestations, Severe: patients N (6 mg): 1
- Infections and infestations: events E (6 mg): 51
- Infections and infestations: patients % (6 mg): (9.2) %
- Infections and infestations: patients N (6 mg): 43
- Influenza, Mild: events E (6 mg): 4
- Influenza, Mild: patients % (6 mg): (0.9) %
- Influenza, Mild: patients N (6 mg): 4
- Influenza, Moderate: events E (6 mg): 3
- Influenza, Moderate: patients % (6 mg): (0.6) %
- Influenza, Moderate: patients N (6 mg): 3
- Influenza, Severe: events E (6 mg): 0
- Influenza, Severe: patients N (6 mg): 0
- Influenza: events E (6 mg): 7
- Influenza: patients % (6 mg): (1.5) %
- Influenza: patients N (6 mg): 7
- Injury, poisoning and procedural complications, Mild: events E (6 mg): 4
- Injury, poisoning and procedural complications, Mild: patients % (6 mg): (0.9) %
- Injury, poisoning and procedural complications, Mild: patients N (6 mg): 4
- Ligament sprain, Mild: events E (6 mg): 0
- Ligament sprain, Mild: patients N (6 mg): 0
- Ligament sprain, Moderate: events E (6 mg): 0
- Ligament sprain, Moderate: patients N (6 mg): 0
- Ligament sprain, Severe: events E (6 mg): 0
- Ligament sprain, Severe: patients N (6 mg): 0
- Ligament sprain: events E (6 mg): 0
- Ligament sprain: patients N (6 mg): 0
- Skeletal injury, Mild: events E (6 mg): 0
- Skeletal injury, Mild: patients N (6 mg): 0
- Skeletal injury, Moderate: events E (6 mg): 0
- Skeletal injury, Moderate: patients N (6 mg): 0
- Skeletal injury, Severe: events E (6 mg): 1
- Skeletal injury, Severe: patients % (6 mg): (0.2) %
- Skeletal injury, Severe: patients N (6 mg): 1
- Skeletal injury: events E (6 mg): 1
- Skeletal injury: patients % (6 mg): (0.2) %
- Skeletal injury: patients N (6 mg): 1
- Ileus: events (E) (6 mg (N = 469)): 0
- Infections and infestations (SOC): events E (6 mg (N = 469)): 51
- Infections and infestations (SOC): patients % (6 mg (N = 469)): (9.2) %
- Infections and infestations (SOC): patients N (6 mg (N = 469)): 43
- Influenza like illness, Mild: events (E) (6 mg (N = 469)): 1
- Influenza like illness, Mild: patients (%) (6 mg (N = 469)): (0.2) %
- Influenza like illness, Moderate: events (E) (6 mg (N = 469)): 0
- Influenza like illness, Severe: events (E) (6 mg (N = 469)): 0
- Influenza like illness: events (E) (6 mg (N = 469)): 1
- Influenza like illness: events E (6 mg (N = 469)): 1
- Influenza like illness: patients % (6 mg (N = 469)): (0.2) %
- Influenza like illness: patients (%) (6 mg (N = 469)): (0.2) %
- Influenza like illness: patients N (6 mg (N = 469)): 1
- Influenza: events E (6 mg (N = 469)): 7
- Influenza: patients % (6 mg (N = 469)): (1.5) %
- Influenza: patients N (6 mg (N = 469)): 7
- Injury, poisoning and procedural complications (SOC): events E (6 mg (N = 469)): 9
- Nausea, Mild: events (E) (6 mg (N = 469)): 3
- Nausea, Mild: patients (%) (6 mg (N = 469)): (0.6) %
- Nausea, Moderate: events (E) (6 mg (N = 469)): 2
- Nausea, Moderate: patients (%) (6 mg (N = 469)): (0.4) %
- SAE Musculoskeletal and connective tissue disorders, E events (6 mg (N = 469)): 0
- SAE Musculoskeletal and connective tissue disorders, N patients (6 mg (N = 469)): 0
- SAE Musculoskeletal and connective tissue disorders, No Reasonable Possibility, E events (6 mg (N = 469)): 0
- SAE Musculoskeletal and connective tissue disorders, No Reasonable Possibility, N patients (6 mg (N = 469)): 0
- SAE Musculoskeletal and connective tissue disorders, Reasonable Possibility, E events (6 mg (N = 469)): 0
- SAE Musculoskeletal and connective tissue disorders, Reasonable Possibility, N patients (6 mg (N = 469)): 0
- Influenza, Mild: events E (Active Combined): 6
- Influenza, Mild: patients % (Active Combined): (0.6) %
- Influenza, Mild: patients N (Active Combined): 6
- Influenza, Moderate: events E (Active Combined): 3
- Influenza, Moderate: patients % (Active Combined): (0.3) %
- Influenza, Moderate: patients N (Active Combined): 3
- Influenza, Severe: events E (Active Combined): 0
- Influenza, Severe: patients N (Active Combined): 0
- Influenza: events E (Active Combined): 9
- Influenza: patients % (Active Combined): (1.0) %
- Influenza: patients N (Active Combined): 9
- Skeletal injury, Mild: events E (Active Combined): 0
- Skeletal injury, Mild: patients N (Active Combined): 0
- Skeletal injury, Moderate: events E (Active Combined): 0
- Skeletal injury, Moderate: patients N (Active Combined): 0
- Skeletal injury, Severe: events E (Active Combined): 1
- Skeletal injury, Severe: patients % (Active Combined): (0.1) %
- Skeletal injury, Severe: patients N (Active Combined): 1
- Skeletal injury: events E (Active Combined): 1
- Skeletal injury: patients % (Active Combined): (0.1) %
- Skeletal injury: patients N (Active Combined): 1
- Infections and infestations (SOC): events E (Active Combined (N = 936)): 89
- Infections and infestations (SOC): patients % (Active Combined (N = 936)): (8.2) %
- Infections and infestations (SOC): patients N (Active Combined (N = 936)): 77
- Influenza like illness, Mild: events (E) (Active Combined (N = 936)): 1
- Influenza like illness, Mild: patients (%) (Active Combined (N = 936)): (0.1) %
- Influenza like illness, Moderate: events (E) (Active Combined (N = 936)): 0
- Influenza like illness, Severe: events (E) (Active Combined (N = 936)): 0
- Influenza like illness: events (E) (Active Combined (N = 936)): 1

Source: patent publication US20160367623A1, “AGONISTS OF GUANYLATE CYCLASE USEFUL FOR THE TREATMENT OF GASTROINTESTINAL DISORDERS, INFLAMMATION, CANCER AND OTHER DISORDERS” (priority 2015, published 2016)
